In article PMC11035697, “Phosphorylation of the F-BAR protein Hof1 drives septin ring splitting in budding yeast” (Nature Communications, 2024):
Blank lines part the entries; values can stand above or below the binder they belong to.

Experiments:
[1] = target: the molecule itself; assay: negative-stain transmission electron microscopy; septin octamers diluted in low salt buffer (20 mM Tris-Cl pH 8, 30 mM NaCl, 2 mM MgCl2, 40 µM GTP), polymerised at least 30 min at 4 °C, 180 nM final; 1% uranyl acetate; octamers to filaments
[2] = target: T1, eGFP-tagged Cdc11-capped septin octamer (S. cerevisiae, UniProt P32458 1-415; P32468 1-407; P32457 1-520; P25342 1-322); assay: fluorescence microscopy of purified proteins (colocalisation on septin bundles); 1:1 mix of eGFP-tagged and untagged septin octamers (50 nM) on PI(4,5)P2-containing supported lipid bilayers in 20 mM Tris-Cl pH 8, 30 mM NaCl, 2 mM MgCl2, GTP; Hof1-BFP mixed 1:4 with untagged Hof1 added; spinning disk microscopy; conditions: both partners purified
T1 construct: septin Cdc11, yeast; septin Cdc12, yeast; septin Cdc3, yeast; septin Cdc10, yeast; Always used as a 1:1 mix with the untagged octamer in the fluorescence experiments; also called eGFP-labelled septin octamers; GFP-tagged septin octamers; source: E. coli BL21 (DE3) Rosetta, co-expressed from pFM453 and pFM873, purified (amylose, thrombin cleavage of MBP, Ni-NTA); not shown: MBP, N-terminal, …

B1: Cdc11-Cdc12-Cdc3-Cdc10-Cdc10-Cdc3-Cdc12-Cdc11 septin octamer (complex, S. cerevisiae)
chain 1: MSGIIDASSALRKRKHLKRGITFTVMIVGQSGSGRSTFINTLCGQQVVDTSTTILLPTDTSTEIDLQLREETVELEDDEGVKIQLNIIDTPGFGDSLDNSPSFEIISDYIRHQYDEILLEESRVRRNPRFKDGRVHCCLYLINPTGHGLKEIDVEFIRQLGSLVNIIPVISKSDSLTRDELKLNKKLIMEDIDRWNLPIYNFPFDEDEISDEDYETNMYLRTLLPFAIIGSNEVYEMGGDVGTIRGRKYPWGILDVEDSSISDFVILRNALLISHLHDLKNYTHEILYERYRTEALSGESVAAESIRPNLTKLNGSSSSSTTTRRNTNPFKQSNNINNDVLNPASDMHGQSTGENNETYMTREEQIRLEEERLKAFEERVQQELLLKRQELLQREKELREIEARLEKEAKIKQEE
chain 2: MSAATATAAPVPPPVGISNLPNQRYKIVNEEGGTFTVMLCGESGLGKTTFINTLFQTVLKRADGQQHRQEPIRKTVEIDITRALLEEKHFELRVNVIDTPGFGDNVNNNKAWQPLVDFIDDQHDSYMRQEQQPYRTKKFDLRVHAVLYFIRPTGHGLKPIDIETMKRLSTRANLIPVIAKADTLTAQELQQFKSRIRQVIEAQEIRIFTPPLDADSKEDAKSGSNPDSAAVEHARQLIEAMPFAIVGSEKKFDNGQGTQVVARKYPWGLVEIENDSHCDFRKLRALLLRTYLLDLISTTQEMHYETYRRLRLEGHENTGEGNEDFTLPAIAPARKLSHNPRYKEEENALKKYFTDQVKAEEQRFRQWEQNIVNERIRLNGDLEEIQGKVKKLEEQVKSLQVKKSHLK
chain 3: MSLKEEQVSIKQDPEQEERQHDQFNDVQIKQESQDHDGVDSQYTNGTQNDDSERFEAAESDVKVEPGLGMGITSSQSEKGQVLPDQPEIKFIRRQINGYVGFANLPKQWHRRSIKNGFSFNLLCVGPDGIGKTTLMKTLFNNDDIEANLVKDYEEELANDQEEEEGQGEGHENQSQEQRHKVKIKSYESVIEENGVKLNLNVIDTEGFGDFLNNDQKSWDPIIKEIDSRFDQYLDAENKINRHSINDKRIHACLYFIEPTGHYLKPLDLKFMQSVYEKCNLIPVIAKSDILTDEEILSFKKTIMNQLIQSNIELFKPPIYSNDDAENSHLSERLFSSLPYAVIGSNDIVENYSGNQVRGRSYPWGVIEVDNDNHSDFNLLKNLLIKQFMEELKERTSKILYENYRSSKLAKLGIKQDNSVFKEFDPISKQQEEKTLHEAKLAKLEIEMKTVFQQKVSEKEKKLQKSETELFARHKEMKEKLTKQLKALEDKKKQLELSINSASPNVNHSPVPTKKKGFLR
chain 4: MDPLSSVQPASYVGFDTITNQIEHRLLKKGFQFNIMVVGQSGLGKSTLINTLFASHLIDSATGDDISALPVTKTTEMKISTHTLVEDRVRLNINVIDTPGFGDFIDNSKAWEPIVKYIKEQHSQYLRKELTAQRERFITDTRVHAILYFLQPNGKELSRLDVEALKRLTEIANVIPVIGKSDTLTLDERTEFRELIQNEFEKYNFKIYPYDSEELTDEELELNRSVRSIIPFAVVGSENEIEINGETFRGRKTRWSAINVEDINQCDFVYLREFLIRTHLQDLIETTSYIHYEGFRARQLIALKENANSRSSAHMSSNAIQR
notes: septin Cdc11, yeast; septin Cdc12, yeast; septin Cdc3, yeast; septin Cdc10, yeast; also called Cdc11-capped septin octamers; recombinant septin octamers; source: E. coli BL21 (DE3) Rosetta, co-expressed from pFM453 and pFM455, purified (amylose, thrombin cleavage of MBP, Ni-NTA); not shown: MBP, N-terminal, cleaved; His6, N-terminal, kept; copies: 2 + 2 + 2 + 2
- binding result [1]: binds

- binding result [2]: binds
B2: MBP-Hof1-BFP-6His (natural protein, S. cerevisiae, UniProt Q05080 1-669, looked up)
chain: MSYSYEACFWDPNDNGVNILLGHISQGIRSCDSMILFFKQRSELEKDYARRLGAITGKLDKDIGTNMDYGKLNETFNVVLSVEKARAQSHSKQSEILFRQIYTDTKAFAANLQARYTTLSGKIERLRMDKFNKKKGCEVLQKKLQDAQIRFRDLQLNENNMIGAKRVEHNKRELLKWESNSQEYKVQLDVLKQEYKASQKFWIHEWAQLSCELQEMENARISFLQSKLQQFATSSMETYILEQTKMDMLTNHLNSFTAADEISTFSKENGTGRLKHKTSKGDMNSSANWAQMSSISTTSKKTESYMDNIRKLSSQLKETENKRKLASIDKYEKPLPSPEVTMATQFRNSTPVIRNETKVVANPTLSLRSSPVQLQSNVDDSVLRQKPDKPRPIVGEEQLKPDEDSKNPDEKGLMVHKRNQSLSSPSESSSSNPTDFSHIKKRQSMESMTTSVSSMANSIDDSQRFAKSWNSSNRKRKSMSHLQVPSSASSRSDDGGRTPNSAHNLNEDDYNTRRDTSTSTILFKPPVAVRGTSRGHTHRQSMIMQDSSNPIEDALYEMERIQSSSKPGTKTGNIMDERGVVRDRGITVTLPIVTSEGFPVIEYAKAMYPLIGNEAPGLANFHKGDYLLITEIVNKDWYKGEVYDNDRIDRNHRIGLIPYNFIQLLHQGL
notes: F-BAR protein Hof1, S. cerevisiae, residues 1-669 (mTagBFP fragment cloned into pBG2163); BFP amplified from pHPOM1-mTagBFP2; also called Hof1 tagged with blue fluorescent protein; pSP1950; source: E. coli BL21 (DE3) Rosetta, purified (Ni-NTA, amylose); not shown: MBP, N-terminal, kept; mTagBFP, C-terminal, kept
